Test results: paper PMC8857485, “Prostate secretory protein 94 inhibits sterol binding and export by the mammalian CAP protein CRISP2 in a calcium-sensitive manner” (The Journal of Biological Chemistry, 2022)
Read-outs that look alike come from different tables or passages of the source.

Legend:
cholesterol sulfate = assay: microscale thermophoresis; settings: measurements in triplicates
[1] = target: T1, prostate secretory protein of 94 amino acids (PSP94), C-terminal polyhistidine tag (human, UniProt P08118 21-114); assay: MST
T1 chain: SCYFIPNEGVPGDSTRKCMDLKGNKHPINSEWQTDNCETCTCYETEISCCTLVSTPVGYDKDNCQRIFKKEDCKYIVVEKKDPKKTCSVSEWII

[2] = target: T1, prostate secretory protein of 94 amino …; assay: MST
[3] = system: sterol export by CAP proteins (Pry1, CRISP2, CRISP3); assay: In vivo sterol export assay ([14C]cholesteryl acetate export) in yeast; assay type: cell-based, Saccharomyces cerevisiae; settings: co-expression with CRISP2 in quadruple mutant yeast
From the text: To test whether expression of PSP94 would affect the function of Pry1 in sterol export, we expressed PSP94 fused to the N-terminal signal sequence from Pry1 (amino acids 1–19) from a constitutive alcohol dehydrogenase promoter (ADH1) to direct the protein into the yeast secretory pathway. This PSP94-containing plasmid was then transformed into heme-deficient yeast cells lacking the sterol deacetylase Say1 (hem1Δ say1Δ). This strain is able to take up radiolabeled [^14C]cholesterol, acetylate it in an alcohol acetyltransferase 2 (Atf2)-dependent pathway, and secrete the resulting radiolabeled cholesteryl acetate back into the culture medium ([29]). […] To test whether expression of PSP94 would affect the synthesis or secretion of Pry1, CRISP2, or CRISP3, we coexpressed FLAG-tagged PSP94 with hemagglutinin (HA)-tagged Pry1, CRISP2, or CRISP3, separated yeast cells from the culture medium, precipitated proteins from both fractions with trichloroacetic acid (TCA), and detected the tagged proteins by Western blotting.
The sterol export assay was performed as described ([29]). […] Extracted radiolabeled lipids were quantified by scintillation counting, and volumes corresponding to 10,000 cpm (counts per minute) were dried. […] TLC plates were then exposed to phosphorimager screens, and radiolabeled lipids were visualized and quantified using a phosphorimager. […]

[4] = cholesterol sulfate titrated (x axis Cholesterol sulfate [µM])

Question: For “CRISP2 (cysteine-rich secretory protein 2), C-terminal polyhistidine tag (from UniProt P16562) L98G; Y99P”, which Kd (cholesterol sulfate; in the presence of PSP94) is on record?
Answer: The Kd was 0.5 µM.

Question: What about the Kd (cholesterol sulfate; [4]) of the same molecule?
Answer: The Kd was 2.2 µM.

Question: “CRISP2 (cysteine-rich secretory protein 2), C-terminal polyhistidine tag (from UniProt P16562) N97P; L98G” was tested. Which Kd (cholesterol sulfate; [4]) did it give?
Answer: The Kd was 3.8 µM.

Question: “CRISP2 (cysteine-rich secretory protein 2), C-terminal polyhistidine tag (from UniProt P16562) N97P; Y99P” was tested. Which Kd (cholesterol sulfate; [4]) did it give?
Answer: Its Kd is 2.7 µM.

B1: CRISP3 (cysteine-rich secretory protein 3), C-terminal polyhistidine tag (natural protein)
chain: NEDKDPAFTALLTTQTQVQREIVNKHNELRRAVSPPARNMLKMEWNKEAAANAQKWANQCNYRHSNPKDRMTSLKCGENLYMSSASSSWSQAIQSWFDEYNDFDFGVGPKTPNAVVGHYTQVVWYSSYLVGCGNAYCPNQKVLKYYYVCQYCPAGNWANRLYVPYEQGAPCASCPDNCDDGLCTNGCKYEDLYSNCKSLKLTLTCKHQLVRDSCKASCNCSNSIY
modifications: RED-tris-NTA fluorescent label on the His tag
Question: B1 was tested. Which Kd [1] did it give?
Answer: Its Kd is 46 nM.

B2: CRISP2 N97P L98G (protein)
chain: KDPAFTALLTTQLQVQREIVNKHNELRKAVSPPASNMLKMEWSREVTTNAQRWANKCTLQHSDPEDRKTSTRCGEPGYMSSDPTSWSSAIQSWYDEILDFVYGVGPKSPNAVVGHYTQLVWYSTYQVGCGIAYCPNQDSLKYYYVCQYCPAGNNMNRKNTPYQQGTPCAGCPDDCDKGLCTNSCQYQDLLSNCDSLKNTAGCEHELLKEKCKATCLCENKIY
modifications: limits not printed: mature chain by convention (pelB secretion in E. coli, C-terminal His tag left out); residue numbers match the precursor
Question: Which Kd [2] does the source give for B2 here?
Answer: Its Kd is 4 nM.

B3: CAP domain of Pry1 (Pry1^CAP), C-terminal polyhistidine tag (domain or fragment)
chain: SASSSDSDLSDFASSVLAEHNKKRALHKDTPALSWSDTLASYAQDYADNYDCSGTLTHSGGPYGENLALGYDGPAAVDAWYNEISNYDFSNPGFSSNTGHFTQVVWKSTTQVGCGIKTCGGAWGDYVICSYDPAGNYEGEYADNVEPLA
modifications: RED-tris-NTA fluorescent label on the His tag
Question: How did the Kd [1] turn out when B3 was run?
Answer: The Kd was 63 nM.

B4: PSP94^F24G: point mutant version of PSP94 (F24 corresponds to F4 in the processed protein), impaired binding to CRISP3 (protein)
chain: SCYGIPNEGVPGDSTRKCMDLKGNKHPINSEWQTDNCETCTCYETEISCCTLVSTPVGYDKDNCQRIFKKEDCKYIVVEKKDPKKTCSVSEWII
modifications: left off: polyhistidine, C-terminal, state not stated
Question: B4 was tested. Which “effect on sterol binding and export by CRISP2 in vivo” value [3] did it give?
Answer: The value was “did not inhibit sterol binding and export”.
